# Laboratory results from the RNAGym collection of RNA variant scans (doi:10.7554/elife.90254).
# B1: OR4K15 (parent)
# chain: GUUAACGGUCAUAGGCCAUGGAAACUAGGAGCACCAUUUCGCUGCCAGUGAAGAAAUGAACAAAGAAAAUCUGGGCCAGGCAGGCAUCAAAAGAAAUAGUCUUGCGCUCAACCAGAAAGUCUGUAAUCAUUUUAAGGGUA
# Variants of: B1
# Assay: self-cleavage, relative activity (ratio to wild type); higher = more cleavage; in vitro, sequencing; the parent is a self-cleaving ribozyme
row,Variant,self-cleavage
1,A5U U70C,1.03
2,A30C A64U,0.92
3,U72G U120A,0.19
4,U38A A135G,2.17
5,A64G U108A,0.01
6,C6A A89U,1.38
7,A90G G104A,0.02
8,A11C A110U,1.76
9,A51U U97C,1.37
10,A59G A66U,1.75
11,U108C A118C,0
12,A67U,1.54
13,C10U U37C,1.65
14,A52U U122C,0.74
15,A5G A129G,0.87
16,A52G A94U,2.01
17,A4G U49C,0.82
18,A89C G106C,0
19,G53U,1.7
20,G1U A24G,1.6
21,A63G U103G,0.01
22,U49A C121A,0.95
23,U57C U127A,1.19
24,A91U A114U,0.14

row,Variant,self-cleavage
1,C42U A94G,2.27
2,C109A U127C,0.17
3,A92G A118G,1.26
4,C34U A62G,1.25
5,A114U U120A,0.05
6,A59G A114C,0.03
7,U38A G93A,2.09
8,A90G C112G,0
9,A27U U132C,1.39
10,U43G A140G,2.62
11,G50U U127C,1.29
12,A91U A110U,0.82
13,A51G U87A,1.3
14,A18G A94U,1.4
15,G53U U72A,0.19
16,A33G U37A,1.02
17,A51G U72A,0.13
18,A5G A118U,0.56
19,U39C C76U,0.19
20,A47C U72A,0.37
21,U19C C105U,0.15
22,A27G A110G,0.1
23,A5C U102C,0.96
24,A63U U132C,1.98

row,Variant,self-cleavage
1,U97C U103C,0.58
2,C42U A91G,1.09
3,G7U A60G,0.79
4,A22G U37C,1.68
5,A52G U70A,0.45
6,A30U A59U,1.6
7,U37C A92G,0.77
8,G29A C34U,1.67
9,C10U A94G,1.27
10,U39A A95G,2.05
11,A111G A114U,0
12,U12A U103C,0.14
13,A51U U87C,0.54
14,A13G U120A,1.9
15,A47U A98C,1.44
16,G7A C112U,0.02
17,A92G G119A,2.3
18,A126U G137A,1.21
19,A89G A140U,1.23
20,A4U U133C,1.79
21,A64G U72C,0.27
22,A24G C88U,0.95
23,A129G U132C,1.16
24,U12C G31U,1.48

row,Variant,self-cleavage
1,G7U A86U,1.63
2,A5U A90G,0.78
3,A69G A110G,0.14
4,U87G A111G,0.02
5,A52G A116U,0.12
6,A64U U122A,1.78
7,U12C A66G,0.97
8,A111G G137A,0.02
9,U38C U103C,1.18
10,G1U A5G,0.45
11,A56U A66U,0.42
12,A27G U70C,0.56
13,A114C A129G,0.01
14,C121A,2.65
15,A64U A140G,1.39
16,A86U U131C,1.77
17,U124C U139C,0.91
18,A110U U132C,0.71
19,G41C A52G,1.59
20,U39G A90G,1.08
21,U39A A89U,2.25
22,A89U U124C,1.38
23,G50U A125U,2.34
24,A117G U133C,1.85

row,Variant,self-cleavage
1,U19C U131C,1.14
2,A22U G29A,0.84
3,U49A G138U,1.69
4,A90G A129U,0.35
5,A55G A129G,0.99
6,A22U U103C,1.66
7,A55U U103C,0.91
8,U49A A66U,1.29
9,C6U U130C,0.74
10,A94G A118G,0.8
11,C105G,0.02
12,A64G A78G,0.28
13,A96C U103C,0.9
14,A11U U102A,0.7
15,G20U C77A,0.73
16,U70C A140U,0.96
17,A54U A89G,1.42
18,A78G A129C,0.11
19,A89U U102C,1.9
20,A96G U97A,0.94
21,G80C U132A,0.1
22,A30G A140G,1.34
23,U102A U108A,0.02
24,U72C U103A,0.08

row,Variant,self-cleavage
1,A47U U127C,0.59
2,A60U A116G,1.37
3,U72C U120A,0.13
4,A55G G84A,2.46
5,A4G C77U,1.45
6,A47U A52G,0.81
7,G1U A36G,1.26
8,A4G A116U,0.26
9,A24G A59G,1.23
10,A5G A11G,0.63
11,U26C A95G,1.75
12,A55U A59G,0.75
13,A68G A129C,0.82
14,A22G A33C,0.57
15,U72A A118G,0.12
16,G15A U108A,0.01
17,A47U A134G,1.24
18,A52U U120C,1.21
19,U124C U132G,0.76
20,U2C A47G,1.28
21,A22G A118G,0.99
22,A24U U49C,0.58
23,A36U A51G,1.82
24,A82U U122C,0.17

row,Variant,self-cleavage
1,C16U A23U,1.24
2,U49C A94U,1.36
3,A117G U122A,2.35
4,U3A A66G,1.1
5,A67G G137A,1.67
6,U37C U38C,1.51
7,A22G A68C,0.64
8,A27G A125G,0.26
9,U131A A134U,0.77
10,G28A U124C,0.6
11,U102C A110C,0.4
12,U19C U122A,0.65
13,A47G G104A,0.05
14,A52G A66U,1.54
15,A59G A134U,1.94
16,A52G,1.11
17,U9C U132A,1.85
18,A30U C105U,0.4
19,U19C A125G,0.61
20,A82U A126U,0.19
21,U9C A22U,1.7
22,U124A A140G,0.65
23,A78G U122C,0.19
